This note sets out measurements from patent publication US20090232783, “Method for Regulating Production of Hemoglobin Beta Chains” (published 2009).

B1: mutant oligo no. 3 (dsDNA)
DNA 1: AACTCCTAAGCCAGTGCCAGAACAGCCAACCCCCCGT
DNA 2: ACGGGGGGTTGGCTGTTCTGGCACTGGCTTAGGAGTT
B2: mutant oligo no. 2 (dsDNA)
DNA 1: AACTCCTAAGCCAGTGCCAGAAAAAACAAGGACAGGT
DNA 2: ACCTGTCCTTGTTTTTTCTGGCACTGGCTTAGGAGTT
B3: mutant oligo no. 1 (dsDNA)
DNA 1: AAGGGGGGAGCCAGTGCCAGAAGAGCCAAGGACAGGT
DNA 2: ACCTGTCCTTGGCTCTTCTGGCACTGGCTCCCCCCTT

This series concerns the target Nuclear ferritin-H (K562 nuclear extract, crude or heat/proteinase K enriched) (Homo sapiens, UniProt P02794 P02794:2-183). In words: competition; competes about as well as wt. The note with it: protein: extract. The procedure: Gel mobility shift assays. Gel retardation assays (i.e., gel shifts) were used to determine DNA binding of the extract proteins to the Rsa I (95 bp) fragment and synthetic oligonucleotides (Berg et al., (1989) Nucleic Acids Res 17, 8833-52; Fried & Crothers (1981) Nucleic Acids Res 9, 6505-25). Each reaction contained 0.5-2 ng of DNA, 1.0-5.0 ug of extract protein, 1.0-5.0 ug of poly dI:poly dC, 100 mM KCl, and binding buffer (Berg et al., (1989) Nucleic Acids Res 17, 8833-52). Unlabeled competitor oligonucleotides ranged from 15- to 2000-fold molar excess and were included in the reaction mixture with the probe before adding protein. Gels used for retardation assays were 4%, 5%, or 6% acrylamide and the running buffer was low ionic strength TAE (Berg et al., (1989) Nucleic Acids Res 17, 8833-52).
Definition of the binding site with competition gel shifts. To further localize the binding of ferritin, the 37 bp oligonucleotide was mutated in different places, replacing six nucleotides at a time with all A's, all C's, or all G's, with complementary nucleotide replacements in the opposing strand (FIG. 4A). A competition gel shift assay was done with the partially purified protein from heated K562 nuclear extract, in which each of the unlabeled mutant oligos as well as the native sequence was competed against the 32-P-labeled native sequence for binding.
Consider B1, for which the binding signal was approximately 1 fold.
In turn, B2 yielded a binding signal of approximately 1 fold.
With B3 the figure was approximately 1 fold.
